PMC5750218, “Protein-inspired antibiotics active against vancomycin- and daptomycin-resistant bacteria” (Nature Communications, 2018)
In brackets after ≈: the same amount, converted by molar mass. Like-named read-outs stand apart in the source and are kept apart here.

How the values were obtained:
[1] = In vivo pharmacokinetics in mice; conditions: mouse; for level at 5 min / level at […] / level at 0.5 h / level at 1 h / level at 2 h / level at 4 h / level at 8 h / level at 24 h: male, CD1, plasma; for level at […]: 0.250 h; for level at 0.5 h: 0.500 h; for bioavailability / AUC(0-inf) / AUC(0-t) / C0 / clearance / half-life / MRT inf / MRT last / Vd / Cmax / Tmax: plasma; for bioavailability: subcutaneous, SC 10 mg kg-1 vs IV 2 mg kg-1; for MRT inf: read-out: MRT0-inf; for MRT last: read-out: MRT0-last; for Vd: read-out: Vdss
[2] = test system: S. aureus ATCC 43300; assay: Membrane permeability assay (propidium iodide); format: cell-based, Staphylococcus aureus
Experimental: To evaluate the ability of the compounds to disrupt the cytoplasmic membrane integrity, the membrane impermeable fluorescent DNA intercalating dye propidium iodide (PI) was used. Early exponential phase cells were pelleted and washed twice in 10 mM HEPES buffer (pH 7.4) containing 50 µg mL^−1 of CaCl2 and 5 mM glucose, and then re-suspended in the same buffer (4 × 10^8 CFU mL^−1). Cell suspension was added to a 384-well black walled polystyrene plate (Corning, CLS3573) containing compounds, giving a final concentration of 16 µg mL^−1. After 1 h incubation at 37 °C, 5 µg mL^−1 of PI was added and fluorescence was monitored for 90 min using a Tecan Infinite® m1000 Pro Multi-mode reader (excitation/emission 535/620 nm). Data were corrected by subtraction of fluorescence signal arising from untreated cells in the presence of PI. […] Each sample was tested in quadruplicate and independent assays were performed twice showing similar results. Data was analysed and presented using Prism software.

[3] = Haemolysis assay; format: cell-based; conditions: human, whole blood
Experimental: Haemolytic activity was measured as previously described with slight modifications, [45]. Fresh human venal blood was collected from healthy volunteers and pretreated with the anticoagulant sodium citrate. Serial twofold dilutions of each antibiotic, dissolved in 0.9% NaCl solution, were added to fresh human whole blood (50% final, vol:vol) to the final volume of 80 μL and incubated at 37 °C for 3 h on a horizontal shaker at 200 rpm. For negative and positive controls, human whole blood in 0.9% NaCl solution (A blank) and in sdH2O (A water) were used, respectively. After incubation, both test and A blank were mixed with 1 mL 0.9% NaCl solution, or sdH2O for the complete […] A water. After centrifugation of samples at 2500 rpm (700 × g) for 5 min, the release of haemoglobin was monitored by measuring the absorbance (A sample) of the supernatant at 540 nm using BMG Labtech PolarStar Omega multimode reader. The percentage of haemolysis was calculated according to the equation: %haemolysis=Asample-Ablank∕Awater-Ablank×100

[4] = test system: Bacillus subtilis ATCC 6633; assay: microbe, parasite or virus in culture; format: cell-based; conditions: ATCC 6633, 48 h
[5] = test system: S. aureus ATCC 43300 MRSA; assay: microbe, parasite or virus in culture; format: cell-based, Staphylococcus aureus
Experimental: The compounds, along with standard antibiotics were serially diluted twofold across the wells of 96-well non-binding surface (NBS) polystyrene plates (Corning 3641). […] Standards ranged from 64 to 0.03 µg mL^−1 and compounds from 8 to 0.003 µg mL^−1 with final assay volumes of 100 µL per well. Gram-positive bacteria were cultured in Mueller Hinton broth (MHB) (Bactolaboratories, Cat. no. 211443) at 37 °C overnight. A sample of each culture was then diluted 40-fold in fresh MHB and incubated at 37 °C for 2–3 h. The resultant mid-log phase cultures were added to the compound-containing 96-well plates to give a final cell density of 5 × 10^5 colony forming unit (CFU) mL^−1. All the plates were covered and incubated at 37 °C for 24 h. MICs were the lowest concentration showing no visible growth.

[6] = 2 mg/kg IV, n=3, read-out: Plasma concentration, Mean IV
[7] = 2 mg/kg IV, read-out: Plasma concentration, Mean IV
[8] = 10 mg/kg SC, n=3, read-out: Plasma concentration, Mean SC
[9] = 10 mg/kg SC, read-out: Plasma concentration, Mean SC

SMILES | level at 5 min [1, 6] | level at […] [1, 7] | level at 0.5 h [1, 7] | level at 1 h [1, 7] | level at 2 h [1, 7] | level at 4 h [1, 7] | level at 8 h [1, 7] | level at […] [1, 8] | level at 0.5 h [1, 9] | level at 1 h [1, 9] | level at 2 h [1, 9] | level at 4 h [1, 9] | level at 8 h [1, 9] | level at 24 h [1, 9] | AUC0-inf/AUC0-last ([1]; IV 2 mg kg-1) | Tlast ([1]; IV 2 mg kg-1) | AUC0-inf/AUC0-last ([1]; SC 10 mg kg-1) | Tlast ([1]; SC 10 mg kg-1) | bioavailability [1] | AUC(0-inf) ([1]; IV 2 mg kg-1) | further results
CCCCCCCCCCC(=O)N[C@@H](CCCCN)C(=O)N[C@@H](CCCCN)C(=O)N[C@@H](CCCCNC(=O)[C@H]1NC(=O)[C@H]2NC(=O)[C@H](NC(=O)[C@@H]3NC(=O)[C@H](CC(N)=O)NC(=O)[C@H](NC(=O)[C@@H](CC(C)C)NC)[C@H](O)c4ccc(c(Cl)c4)Oc4cc3cc(c4O[C@@H]3O[C@H](CO)[C@@H](O)[C@H](O)[C@H]3O[C@H]3C[C@](C)(N)[C@H](O)[C@H](C)O3)Oc3ccc(cc3Cl)[C@H]2O)c2ccc(O)c(c2)-c2c(O)cc(O)cc21)C(=O)O [Compound 19, nC10CO-KK-K(Vancomycin)-OH] | 9370 ng/mL | 6970 ng/mL | 6060 ng/mL | 4860 ng/mL | 2640 ng/mL | 1450 ng/mL | 137 ng/mL | 2650 ng/mL | 5130 ng/mL | 8790 ng/mL | 9160 ng/mL | 7370 ng/mL | 2380 ng/mL | 124 ng/mL | 100% | 18.7 h | 101% | 24 h | 71.8% | 16900 ng·h/mL | level at 24 h [1, 7]: 5.7 ng/mL; AUC(0-t) ([1]; IV 2 mg kg-1): 16800 ng·h/mL; C0 ([1]; IV 2 mg kg-1): 10900 ng/mL; clearance ([1]; IV 2 mg kg-1): 1.98 mL/min/kg; half-life ([1]; IV 2 mg kg-1): 2.22 h; MRT inf ([1]; IV 2 mg kg-1): 2.26 h; MRT last ([1]; IV 2 mg kg-1): 2.2 h; Vd ([1]; IV 2 mg kg-1): 0.267 L/kg; AUC(0-inf) ([1]; SC 10 mg kg-1): 60500 ng·h/mL; AUC(0-t) ([1]; SC 10 mg kg-1): 59900 ng·h/mL; Cmax ([1]; SC 10 mg kg-1): 9970 ng/mL; Tmax ([1]; SC 10 mg kg-1): 1.67 h; half-life ([1]; SC 10 mg kg-1): 3.49 h; MRT inf ([1]; SC 10 mg kg-1): 5.59 h; MRT last ([1]; SC 10 mg kg-1): 5.32 h; Membrane permeabilisation (propidium iodide fluorescence) [2]: little to no effect; hemolysis at 3 h ([3]; 100 µg mL-1): 0.7%; hemolysis at 3 h ([3]; 1600 µg mL-1): 0.5%; Ac2Kaa concentration required to neutralise MIC activity [4]: 100 µg/mL; MIC [4]: ≤ 0.004 µg/mL
CCCCCCCCCCC(=O)N[C@@H](CCCCN)C(=O)N[C@@H](CCCCN)C(=O)N[C@@H](CCCCNC(=O)[C@H]1NC(=O)[C@H]2NC(=O)[C@H](NC(=O)[C@@H]3NC(=O)[C@H](CC(N)=O)NC(=O)[C@H](NC(=O)[C@@H](CC(C)C)NC)[C@H](O)c4ccc(c(Cl)c4)Oc4cc3cc(c4O[C@@H]3O[C@H](CO)[C@@H](O)[C@H](O)[C@H]3O[C@H]3C[C@](C)(N)[C@H](O)[C@H](C)O3)Oc3ccc(cc3Cl)[C@H]2O)c2ccc(O)c(c2)-c2c(O)cc(O)cc21)C(N)=O [Compound 21, nC10CO-KK-K(Vancomycin)-NH2] | 10000 ng/mL | 5680 ng/mL | 4330 ng/mL | 2470 ng/mL | 1940 ng/mL | 758 ng/mL | 49.4 ng/mL | 944 ng/mL | 1440 ng/mL | 2950 ng/mL | 3140 ng/mL | 2320 ng/mL | 1370 ng/mL | 45 ng/mL | 101% | 8 h | 101% | 24 h | 43% | 10900 ng·h/mL | AUC(0-t) ([1]; IV 2 mg kg-1): 10800 ng·h/mL; C0 ([1]; IV 2 mg kg-1): 14200 ng/mL; clearance ([1]; IV 2 mg kg-1): 3.13 mL/min/kg; half-life ([1]; IV 2 mg kg-1): 1.12 h; MRT inf ([1]; IV 2 mg kg-1): 1.7 h; MRT last ([1]; IV 2 mg kg-1): 1.6 h; Vd ([1]; IV 2 mg kg-1): 0.31 L/kg; AUC(0-inf) ([1]; SC 10 mg kg-1): 23400 ng·h/mL; AUC(0-t) ([1]; SC 10 mg kg-1): 23100 ng·h/mL; Cmax ([1]; SC 10 mg kg-1): 3560 ng/mL; Tmax ([1]; SC 10 mg kg-1): 2.33 h; half-life ([1]; SC 10 mg kg-1): 3.4 h; MRT inf ([1]; SC 10 mg kg-1): 6.3 h; MRT last ([1]; SC 10 mg kg-1): 6 h; MIC S. aureus ATCC 43300 MRSA ([5]; 1% Survanta): 0.007 µg/mL (≈ 3.5 nM); MIC S. aureus ATCC 43300 MRSA ([5]; 5% Survanta): 0.03 µg/mL (≈ 15 nM); MIC S. aureus ATCC 43300 MRSA ([5]; no added Survanta): 0.015 µg/mL (≈ 7.5 nM)
